Key:
[1] = molecular target: T cell Immunoglobulin- and Mucin domain-containing molecule 3 (TIM3), human, on cells (human) (UniProt Q8TDQ0); assay: flow cytometry; cells not named in the table (Example 5 uses Pfeiffer cells)
[2] = molecular target: T1, T cell Immunoglobulin- and Mucin domain-containing molecule 3 (TIM3), human, on cells (human, UniProt Q8TDQ0 22-301); assay: cell-based or functional assay
T1 sequence: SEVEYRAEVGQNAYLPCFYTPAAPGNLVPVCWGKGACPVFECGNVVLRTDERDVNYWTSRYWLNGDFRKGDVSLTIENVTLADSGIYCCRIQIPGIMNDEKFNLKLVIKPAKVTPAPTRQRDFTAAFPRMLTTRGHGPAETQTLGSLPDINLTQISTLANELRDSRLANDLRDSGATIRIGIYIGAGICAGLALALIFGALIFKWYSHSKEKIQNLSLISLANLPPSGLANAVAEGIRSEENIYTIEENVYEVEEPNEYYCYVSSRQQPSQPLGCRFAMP

[3] = molecular target: T1, T cell Immunoglobulin- and Mucin …; assay: cell binding (flow cytometry), Pfeiffer cells
[4] = molecular target: T1, T cell Immunoglobulin- and Mucin …; assay: flow cytometry, PBMCs of AML patient 3, Blast population
[5] = molecular target: T1, T cell Immunoglobulin- and Mucin …; assay: flow cytometry, PBMCs of AML patient 3, CD34+CD38- population
[6] = molecular target: T1, T cell Immunoglobulin- and Mucin …; assay: flow cytometry; cells not named in the table (Example 5 uses Pfeiffer cells)
[7] = molecular target: T1, T cell Immunoglobulin- and Mucin …; assay: flow cytometry, TIM3 expressing cell lines

Mouse IgG1k-BZAP (antibody) gave a % Positive for TIM3 [1] of 0.501% and a GeoMean (Intensity of TIM3 binding) [1] of 5.33.

Mouse IgG2ak-Biotin (antibody) gave a % Positive for TIM3 [1] of 0.49% and a GeoMean (Intensity of TIM3 binding) [1] of 5.83.

Mouse IgG1k-Biotin (antibody) showed a % Positive for TIM3 [1] of 0.192% and a GeoMean (Intensity of TIM3 binding) [1] of 5.06.

IgG2bk-BZAP (antibody) gave a % Positive for TIM3 [1] of 0.195% and a GeoMean (Intensity of TIM3 binding) [1] of 6.48.

B1: 7.10F6 (antibody, IgG1, V domains shown)
VH: EVQLVESGGGLVQPGGSLKLSCAASGFIFSGYGMSWVRQTPDKRLELVAIINSNGGSVDYPDSVKGRVTISRDNAKNTLYLQMSSLKSEDTAMYYCARIYYRCMDYWGQGTSVTVSS
VL: NIMMTQSPSSLAVSAGEKVTMSCKSSQSLLYSSNQKNYLAWYQQKPGQSPKLLIYWASARESGVPDRFTGGGSGTDFTLTISSVQAEDLAVYYCHQYLSSYTFGGGTKLEIKR
notes: also called 7.10F6.1; 7.10F6.1-pure
B1 was tested, and the “IFN-gamma release from activated CD4+ T cells (ELISA), antibody at 5 ug/ml” value [2] was > 2 fold reduction, the “percentage of cell binding” value [3] was 92% and the percent binding [4] was 1.33%. The percent binding [5] was 0.6%, the “% Positive for TIM3” value [6] was 93.3% and the “GeoMean (Intensity of TIM3 binding)” value [6] was 142.

B2: 9.1G12 (antibody, V domains shown)
VH: EVMLVESGGGLVKPGGSLKLSCAASGFTFSSYAMSWVRQTPERKLEWVATISSGGTYTYYPDSVKGRFTISRDNAKNRLYLQMSGLRSEGTAMYYCVRPDYTHDDGGFAYWGQGTLVTVSA
VL: QAVVTQESALTTSPGETVTLTCRSSTGAVTTSNYANWVQEKPDHLFTGLIGGTNNRAPGVPARFSGSLIGDKAALTITGAQTEDEAIYFCALWYSNHWVFGGGTKLTVL
notes: also called 9.1G12.8
B2 was tested, and the “IL-6 release from activated CD4+ T cells (ELISA), antibody at 5 ug/ml” value [2] was > 2 fold reduction, the “percentage of cell binding” value [3] was 14% and the percent binding [4] was 0.67%. The percent binding [5] was 0.23%.

B3: 9.1G12.8-BZAP (antibody, V domains shown)
VH: EVMLVESGGGLVKPGGSLKLSCAASGFTFSSYAMSWVRQTPERKLEWVATISSGGTYTYYPDSVKGRFTISRDNAKNRLYLQMSGLRSEGTAMYYCVRPDYTHDDGGFAYWGQGTLVTVSA
VL: QAVVTQESALTTSPGETVTLTCRSSTGAVTTSNYANWVQEKPDHLFTGLIGGTNNRAPGVPARFSGSLIGDKAALTITGAQTEDEAIYFCALWYSNHWVFGGGTKLTVL
notes: Biotinylated 9.1G12 (mouse IgG2b,l) conjugated to streptavidin-saporin (SAv-ZAP); also called 9.1G12-BZAP
B3 was tested, and the “% Positive for TIM3” value [6] was 97.4% and the “GeoMean (Intensity of TIM3 binding)” value [6] was 168.

B4: 9.1G12.8-Biotin (antibody, V domains shown)
VH: EVMLVESGGGLVKPGGSLKLSCAASGFTFSSYAMSWVRQTPERKLEWVATISSGGTYTYYPDSVKGRFTISRDNAKNRLYLQMSGLRSEGTAMYYCVRPDYTHDDGGFAYWGQGTLVTVSA
VL: QAVVTQESALTTSPGETVTLTCRSSTGAVTTSNYANWVQEKPDHLFTGLIGGTNNRAPGVPARFSGSLIGDKAALTITGAQTEDEAIYFCALWYSNHWVFGGGTKLTVL
notes: 9.1G12 (mouse IgG2b,l) biotinylated
B4 was tested, and the “% Positive for TIM3” value [6] was 55.4% and the “GeoMean (Intensity of TIM3 binding)” value [6] was 23.1.

B5: 1.7E10 (antibody, V domains shown)
VH: EVKLLESGGGLVQPGGSLKLSCAASGFDFSRYWMSWVRQAPGKGLEWIGEINPDSSTINYTPSLKDKFIISRDNAKNTLFLQMSKVRSEDTALYYCARPSYDGYYGYAMDYWGQGTSVTVSS
VL: DIVLTQSPASLAVSLGQRATISCRASESVDSYGKSFMHWYQQKPGQPPKLLIYRASNLESGIPARFSGSGSRTDFTLTINPVEADDVATYYCQQSNEDPYTFGGGTKLEIKR
For B5, the “IFN-gamma release from activated CD4+ T cells (ELISA), antibody at 5 ug/ml” value [2] was > 2 fold reduction.

B6: 1.7E10.12-Biotin (antibody, V domains shown)
VH: EVKLLESGGGLVQPGGSLKLSCAASGFDFSRYWMSWVRQAPGKGLEWIGEINPDSSTINYTPSLKDKFIISRDNAKNTLFLQMSKVRSEDTALYYCARPSYDGYYGYAMDYWGQGTSVTVSS
VL: DIVLTQSPASLAVSLGQRATISCRASESVDSYGKSFMHWYQQKPGQPPKLLIYRASNLESGIPARFSGSGSRTDFTLTINPVEADDVATYYCQQSNEDPYTFGGGTKLEIKR
notes: 1.7E10 (mouse IgG1,k) biotinylated with the EZ-link Sulfo NHS-LC-Biotinylated kit
In the case of B6, the “% Positive for TIM3” value [6] is reported as 99.2% and the “GeoMean (Intensity of TIM3 binding)” value [6] is reported as 354.

B7: 1.7E10.12-BZAP (antibody, V domains shown)
VH: EVKLLESGGGLVQPGGSLKLSCAASGFDFSRYWMSWVRQAPGKGLEWIGEINPDSSTINYTPSLKDKFIISRDNAKNTLFLQMSKVRSEDTALYYCARPSYDGYYGYAMDYWGQGTSVTVSS
VL: DIVLTQSPASLAVSLGQRATISCRASESVDSYGKSFMHWYQQKPGQPPKLLIYRASNLESGIPARFSGSGSRTDFTLTINPVEADDVATYYCQQSNEDPYTFGGGTKLEIKR
notes: Biotinylated 1.7E10 (mouse IgG1,k) conjugated to streptavidin-saporin (SAv-ZAP)
B7 was tested, and the “% Positive for TIM3” value [6] was 99.3% and the “GeoMean (Intensity of TIM3 binding)” value [6] was 436.

B8: 27.12A6 (antibody, V domains shown)
VH: EVKLVESGGGLVQPGGSLNLSCAASGFTFSSYTMSWVRQTPEKRLEWVAYISSGGHSTYFPDTVKGRFTISRDNAKNTLYLQMSSLKSEDTAVYYCARGGYGNYGPYYNMDYWGQGTSVTVSS
VL: NIMMTQSPSSLAVSAGEKVTMSCKSSQSVLYSSNQKNYLAWYQQKPGQSPKLLIYWASTRESGVPDRFTGSGSGTDFTLTINNVQAEDLAVYYCHQYLSSWTFGGGTKLEIK
notes: also called 27.12A6 (D2.2)
B8: binds [7].

B9: 6.16F9 (antibody, V domains shown)
VH: EVNLVESGGGLVQPGGSLKLSCAASGFTFSSYTMSWVRQSPEKRLEWVAYTSSSGASTYYPDTVKGRFTISRDNAKNTLHLQMSSLKSEDTAMYYCARGGYGNYGPYYALDYWGQGTSVTVSS
VL: NIMMTQSPSSLAVSAGEKVTMSCKSSQSVLYSSNQKNYLAWYQQKPGQSPKLLIYWASTRESGVPDRFTGSGSETDFTLTISSVQTEDLAVYYCHQYLSSWTFGGGTKLEIK
notes: also called 6.16F9 (D2.4)
B9: binds [7].

B10: 27.12E12-Biotin (antibody, V domains shown)
VH: EVQLQQSGAELVRPGALVKLSCKASGFNIKDYYMYWMKQRPEQGLEWIGWIDPENVKTIYDPKFQGRATLTADTSSNTAYLQLSSLTSEDTAVYYCTRDFGYVGFFDVWGAGTTVTVSS
VL: DIVMTQSQKFMSTSVGDRVSVNCKASQNVGTNVVWYQQKPGQSPKALIYSASYRYSGVPDRFTGSGSGTDFTLTISTVQSEDLAEYFCQQYNSYPLTFGGGTKLEIKR
notes: 27.12E12 (mouse IgG2b,k) biotinylated
B10 was tested, and the “% Positive for TIM3” value [6] was 96.8% and the “GeoMean (Intensity of TIM3 binding)” value [6] was 202.

B11: 27.12E12-BZAP (antibody, V domains shown)
VH: EVQLQQSGAELVRPGALVKLSCKASGFNIKDYYMYWMKQRPEQGLEWIGWIDPENVKTIYDPKFQGRATLTADTSSNTAYLQLSSLTSEDTAVYYCTRDFGYVGFFDVWGAGTTVTVSS
VL: DIVMTQSQKFMSTSVGDRVSVNCKASQNVGTNVVWYQQKPGQSPKALIYSASYRYSGVPDRFTGSGSGTDFTLTISTVQSEDLAEYFCQQYNSYPLTFGGGTKLEIKR
notes: Biotinylated 27.12E12 (mouse IgG2b,k) conjugated to streptavidin-saporin (SAv-ZAP)
For B11, the “% Positive for TIM3” value [6] was 98.8% and the “GeoMean (Intensity of TIM3 binding)” value [6] was 268.

B12: 27.2H4 (antibody, IgG1, V domains shown)
VH: EVQLQQSGAELVRPGALVKLSCKASGFNIKHYYIHWVNQRPEQGLEWIGWIDPETGNTIYDPKFQGKASITADTSSSTAYLQLNSLTSEDTAVYCCARGWSYAMDYWGQGTSVIVSS
VL: DIVMTQSHKFMSTSVGDRVSITCKASQDVNTAVAWYQQKPGHSPKLLIYSASYHYTGVPDRFTGSGSGTDFTFTISSVQAEDLAVYYCQQHYSTPWTFGGGTKLEIK
notes: also called 27.2H4 (D2.1)
B12 was tested, and the “percentage of cell binding” value [3] was 75%, the percent binding [4] was 1.07% and the percent binding [5] was 0.69%.

B13: 33.1G12 (antibody, IgG1, V domains shown)
VH: EVQLQQSGPELVKPGASVKISCKASGYSFTGYLMNWVMQSHGKSLEWIGRINPYNGDIFYNQKFKDKATLTVDKSSSTAHMELRSLASEDSAVYYCARRDENFDYDNAMDYWGQGTSVTL
VL: DIVLTQSPASLAVSLGQRATISCRASESVDIYGNSFMHWYQQKPGQPPKLLIYRASNLESGIPARFRGSGSRTDFTLTIYPVEADDVATYYCQQSNEDPWTFGGGTKLEIK
notes: the printed VH ends early (…GQGTSVT)
B13: binds [7].

B14: 6.14B9-Biotin (antibody, V domains shown)
VH: DVQLQESGPGLVKPSQSLSLTCTVTGYSITSDYAWNWIRQFPGNKLEWMGYISYSGSISYNPSLKSRISITRDTSKNQFFLQLNSVTTEDTATYYCARSGRLRRDFDYWGQGTTLT
VL: DIQMTQSPSSLSASLGERVSLTCRASQEISGYLSWLQQKPDGTIKRLIYAASTLDSGVPKRFSGSRSGSDYSLTISSLESEDFADYYCLQYASYPLTFGAGTKLELK
notes: 6.14B9 (mouse IgG1,k) biotinylated
For B14, the “% Positive for TIM3” value [6] was 48.2% and the “GeoMean (Intensity of TIM3 binding)” value [6] was 20.4.

B15: 6.14B9-BZAP (antibody, V domains shown)
VH: DVQLQESGPGLVKPSQSLSLTCTVTGYSITSDYAWNWIRQFPGNKLEWMGYISYSGSISYNPSLKSRISITRDTSKNQFFLQLNSVTTEDTATYYCARSGRLRRDFDYWGQGTTLT
VL: DIQMTQSPSSLSASLGERVSLTCRASQEISGYLSWLQQKPDGTIKRLIYAASTLDSGVPKRFSGSRSGSDYSLTISSLESEDFADYYCLQYASYPLTFGAGTKLELK
notes: Biotinylated 6.14B9 (mouse IgG1,k) conjugated to streptavidin-saporin (SAv-ZAP)
For B15, the “% Positive for TIM3” value [6] was 43.9% and the “GeoMean (Intensity of TIM3 binding)” value [6] was 22.5.
